In doi:10.1101/2025.02.19.639050 (bioRxiv, 2025):
Numbering of substitutions follows the chain as printed. Values belong to the binder of their own block, whether it stands above or below them.

Legend:
Oncostatin M = biological target: T1, Oncostatin M (Homo sapiens, UniProt P13725); test: SPR; Biacore 8K+; antibody captured on a Protein A chip, antigen injected (typically 0.16, 0.8, 4, 20 and 100 nM; 180 s association, 600 s dissociation, 30 µl/min); HBS-EP buffer pH 7.4, 0.15 M NaCl; single cycle or multi cycle kinetics; 1:1 binding model; settings: both partners purified
T1 construct: Oncostatin M (OSM), the antigen injected in SPR; also called OSM

[1] = biological target: T2, Human epidermal growth factor receptor 2 (Homo sapiens, UniProt P04626); test: as above; settings: both partners purified
T2 construct: ERBB2), the antigen injected in SPR; also called HER2; ERBB2

T1 sequence (P13725 26-221): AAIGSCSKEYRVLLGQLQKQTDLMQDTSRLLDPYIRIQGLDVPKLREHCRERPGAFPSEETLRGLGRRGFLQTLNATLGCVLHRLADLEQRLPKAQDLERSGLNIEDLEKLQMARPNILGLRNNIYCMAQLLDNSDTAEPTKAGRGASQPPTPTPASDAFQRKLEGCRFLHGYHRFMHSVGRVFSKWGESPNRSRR

binding result (Oncostatin M): binds
B1: seed OSM-N021 (antibody, V domains shown)
VH: EVQLVESGGGLVQPGGSLRLSCAASGFTFNIYSMNWVRQAPGKGLEWISYISGNSNTIYYADSVKGRFTISRDNAKNSVYLQMNSLRDEDTAVYYCARSLLRYFDWLSAFDIWGQGTMVTVSS
VL: EIVLTQSPGTLSLSPGERATLSCRASQSVGSSYLAWYQQRPGQAPRLLIHGASSRATGIPDRFSGSGSGTDFTLTISGLEPEDVAVYYCQQYGSSPLTFGGGTKVEIK
notes: IgG in SPR; the Fab was crystallised; source: Expi293F, transient (GLFs), purified (Protein A)

fold improvement in affinity relative to the seed OSM-N021 (Oncostatin M): 3.6 fold
ΔpKD relative to the seed OSM-N021 (Oncostatin M): 0.56
B2: design 9N7M (antibody, V domains shown)
VH: B1 VH with G53S, N54G, K76E, V79L, L100G, A109Y, M118L
VL: B1 VL
notes: the Fab of this design is deposited as PDB 9N7M (heavy chain); the Fab of this design is deposited as PDB 9N7M (light chain); IgG in SPR; the Fab (CHO) was crystallised; also called design of seed OSM-N021 with G+Y mutations in the stem region of CDRH3; source: Expi293F, transient (GLFs), purified (Protein A)

fold improvement in affinity relative to the seed OSM-N021 (Oncostatin M): ~4.5 fold
ΔpKD relative to the seed OSM-N021 (Oncostatin M): 0.65
B3: design 9N7O (antibody, V domains shown)
VH: B1 VH with N30T, G53S, N54G, V79L, L100S, A109Y, I112Y
VL: B1 VL
notes: the Fab of this design is deposited as PDB 9N7O (heavy chain); the Fab of this design is deposited as PDB 9N7O (light chain); IgG in SPR; the Fab (CHO) was crystallised; also called design of seed OSM-N021 with S+Y mutations in the stem region of CDRH3; source: Expi293F, transient (GLFs), purified (Protein A)

fold improvement in binding relative to trastuzumab (hu4D5) [1]: > 4 fold
ΔpKD relative to trastuzumab (hu4D5) [1]: 0.688
B4: ERBB2-P00873 (antibody, V domains shown)
VH: VQLVESDGGGLVQQGGSLRLSCAASGFNIKDRYIHWVRQAPGKGLEWVARIYPTNGYTRYADRVKGRFTISADTSKNTAYLQMFSLRAEDTAVYYCSRWGGDGFYAMDYWGQGTLVTVSS
VL: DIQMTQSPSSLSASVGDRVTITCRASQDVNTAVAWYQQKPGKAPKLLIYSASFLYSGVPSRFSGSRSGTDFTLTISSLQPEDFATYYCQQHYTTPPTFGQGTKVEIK
notes: as the heavy chain of m2 (trastuzumab, PDB 1N8Z) with changes; as the light chain of m2 (trastuzumab, PDB 1N8Z); Expressed as IgG; also called design of hu4D5 (5 edits, 1 insertion); source: Expi293F, transient (GLFs), purified (Protein A)
